These results are taken from patent publication US20040092720A1 (US Dept. of Health and Human Services, published 2004).

The target in one test is T1, recombinant human IL-6 (human, UniProt P05231 30-212, labeled with radioactive iodine).
T1 construct: Labeled probe in solution, added to wells that carry the synthetic peptides; also called IL-6 ligand; Interleukin-6
Description: radioiodinated IL-6 on peptide array.
Target sequence in this assay (P05231 30-212 limits assumed): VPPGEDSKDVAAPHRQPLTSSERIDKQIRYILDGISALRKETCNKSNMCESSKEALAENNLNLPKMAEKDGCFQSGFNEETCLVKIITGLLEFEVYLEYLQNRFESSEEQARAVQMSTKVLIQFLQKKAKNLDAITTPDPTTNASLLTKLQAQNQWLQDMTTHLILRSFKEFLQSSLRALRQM
Consider SDKAPCITDWQQEDGTVHRTYLRG [Peptide E47], for which the Counts/minute bound (counts/minute) was found to be 2080.

AAGSHPSRWAGMGRRL [Peptide A6]: the Counts/minute bound (counts/minute) is 1750.

For LTCNILTFGQLEQNVYGITIISGL [Peptide E11], the Counts/minute bound (counts/minute) stood at 1820.

For the molecule PRSTPSLTTKAVLL [Peptide B8], the Counts/minute bound (counts/minute) was 1850.

The next test has as its target T1, recombinant human IL-6. Nature of the test: radioiodinated IL-6 on peptide array; experiment D1-D10. How it is done: (§1) Synthetic peptide arrays were constructed in 96-well microtiter plates in accordance with the method set forth in WO 91/02714 (Saxinger), and used to test the binding of recombinant human IL-6 that had been labeled with radioactive iodine (radiolabeling by standard methods). After incubating the radiolabeled IL-6 ligand in a well with each synthetic peptide, a washing step was performed to remove unbound label, and the relative level of radioactivity remaining in each well of the plate was evaluated to determine the relative affinity of each peptide for IL-6 ligand.
For TWKLRALKEGKTSMHPPYSLG [Peptide D9], the Counts/minute bound is 5530 counts/minute.

As to SVPLPTFLVAGGSLAFGTLLC [Peptide D3], the Counts/minute bound turned out to be 19800 counts/minute.

As to CIAIVLRFKKTWKLRALKEGK [Peptide D7], the Counts/minute bound was 52500 counts/minute.

For the molecule GGSLAFGTLLCIAIVLRFKKT (also called D11; D27) [Peptide D5], the Counts/minute bound worked out at 159000 counts/minute.

On to LRFKKTWKLRALKEGKTSMHP [Peptide D8], for which the Counts/minute bound was found to be 20400 counts/minute.

On to TFLVAGGSLAFGTLLCIAIVL [Peptide D4], for which the Counts/minute bound amounted to 32000 counts/minute.

In the case of VQDSSSVPLPTFLVAGGSLAF [Peptide D2], the Counts/minute bound is 4520 counts/minute.

With ATSLPVQDSSSVPLPTFLVAG [Peptide D1], the Counts/minute bound is 4000 counts/minute.

Consider FGTLLCIAIVLRFKKTWKLRA [Peptide D6], for which the Counts/minute bound was found to be 144000 counts/minute.

As to ALKEGKTSMHPPYSLGQLVPE [Peptide D10], the Counts/minute bound was 4970 counts/minute.

The target in the next test is T1, recombinant human IL-6. Nature of the test: radioiodinated IL-6 on peptide array; experiment D11-D57. How it is done:
as §1
IVLRFKKT [Peptide D40]: the Counts/minute bound came to 4450 counts/minute.

Take LCIAIVLRFKKT [Peptide D36]: the Counts/minute bound was 12400 counts/minute.

On to GTLLCIAIVLRFKKT [Peptide D33], for which the Counts/minute bound is 15700 counts/minute.

With AIVLRFKKT [Peptide D39], the Counts/minute bound turned out to be 4880 counts/minute.

As to IAIVLRFKKT [Peptide D38], the Counts/minute bound stood at 6800 counts/minute.

As for LLCIAIVLRFKKT [Peptide D35], the Counts/minute bound was found to be 15500 counts/minute.

In the case of CIAIVLRFKKT [Peptide D37], the Counts/minute bound amounted to 8350 counts/minute.

Regarding VLRFKKT (also called VLRFKKT) [Peptide D41], the Counts/minute bound came to 2550 counts/minute.

For TLLCIAIVLRFKKT [Peptide D34], the Counts/minute bound was 12400 counts/minute.
